From PMC10919400 come the findings set out here.

The target of test [1] is human plasmin (UniProt P00747). The experiment in a line: whole-bacteria Pln binding; bound Pln activity measured with chromogenic substrate (VALY). Particulars: +Pln: S. suis is incubated with Pln; parent: est. 100; read off a plot.
Test [2] has as its target human plasminogen. The experiment in a line: whole-bacteria Plg binding; bound Plg converted to Pln with tPA, Pln activity measured with chromogenic substrate (VALY). Particulars: +Plg/+tPA: S. suis is incubated with Plg and tPA; parent: est. 100; read off a plot.

Sequence of UniProt P00747 (P00747 581-810, chain 1 of 2): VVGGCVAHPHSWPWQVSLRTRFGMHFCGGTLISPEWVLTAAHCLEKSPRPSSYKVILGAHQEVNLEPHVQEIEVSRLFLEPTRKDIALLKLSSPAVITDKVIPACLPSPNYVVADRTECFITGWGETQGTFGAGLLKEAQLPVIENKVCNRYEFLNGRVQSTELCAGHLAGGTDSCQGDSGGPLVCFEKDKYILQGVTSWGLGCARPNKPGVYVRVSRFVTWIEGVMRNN
Sequence of UniProt P00747 (P00747 581-810, chain 2 of 2): as the sequence (P00747 581-810, chain 1 of 2) above

Consider “Streptococcus suis P1/7 enolase, wild type, on intact bacteria (from UniProt A4W2T1) K261A”, for which the percent of parent (% of wild-type) is 56 in test [1] and 58 in test [2].

For “Streptococcus suis P1/7 enolase, wild type, on intact bacteria (from UniProt A4W2T1) K252A; E253G; K255A”, the percent of parent (% of wild-type) in test [1] is 63; in test [2] it was 55.

Take “Streptococcus suis P1/7 enolase, wild type, on intact bacteria (from UniProt A4W2T1) K252A; K261A”: the percent of parent (% of wild-type) turned out to be 50 in test [1] and 57 in test [2].

Take “Streptococcus suis P1/7 enolase, wild type, on intact bacteria (from UniProt A4W2T1) K434A; K435A”: the results for the percent of parent (% of wild-type) in test [1] and in test [2] were 46 and 55, respectively.
